Paper PMC4596688, “Structural determinants of nuclear export signal orientation in binding to exportin CRM1” (eLife, 2015)
Ends that are not written are not given here. * marks the point of attachment. FITC = O=C1OC2(c3ccc(O)cc3Oc3cc(O)ccc32)c2ccc(NC(=S)*)cc21

B1: CPEB4^NES peptide used for crystallization (GGSY-379RTFDMHSLESSLIDI393) (peptide)
peptide: GGSYRTFDMHSLESSLIDI
notes: residues before the NES that are left after TEV cleavage; NES of CPEB4, residues 379-393; source: E. coli BL-21(DE3), MBP fusion purified (amylose, ion exchange), cleaved with TEV, peptide isolated by gel filtration; not shown: MBP, N-terminal, cleaved
B2: hRio2^NES-R peptide used for crystallization (peptide)
peptide: GGSYGKIEELAQNFETMEFSR
modifications: not fully specified (residue 17)
notes: also called Selenomethione-hRio2-R; source: E. coli BL-21(DE3), MBP fusion purified (amylose, ion exchange), cleaved with TEV, peptide isolated by gel filtration; not shown: MBP, N-terminal, cleaved
B3: FITC-PKI^NES peptide (FITC-SGNSNELALKLAGLDINKT) (peptide)
peptide: {FITC}-SGNSNELALKLAGLDINKT
notes: also called fluorescent-labeled PKI^NES peptide; source: synthetic peptide (GenScript)
B4: hRio2^NES peptide used for crystallization (GGSY-389RSFEMTEFNQALEEI403) (peptide)
peptide: GGSYRSFEMTEFNQALEEI
modifications: not fully specified (residue 9); printed as GGSY^389^RSFEMTEFNQALEEI^403^
notes: residues before the NES that are left after TEV cleavage; NES of human Rio2 (hRio2), residues 389-403; The text speaks of a native and of a selenomethionine peptide; Residues 391-403 modelled; also called Selenomethione-hRio2; source: E. coli BL-21(DE3), MBP fusion purified (amylose, ion exchange), cleaved with TEV, peptide isolated by gel filtration; not shown: MBP, N-terminal, cleaved
B5: CPEB4^NES-R peptide used for crystallization (peptide)
peptide: GGSYRMIDILSSELSHMDFTR
notes: also called CPEB4-R; source: E. coli BL-21(DE3), MBP fusion purified (amylose, ion exchange), cleaved with TEV, peptide isolated by gel filtration; not shown: MBP, N-terminal, cleaved
B6: PKI^NES-Flip3 peptide used for crystallization (peptide)
peptide: GGSYRSFDMNELALKLAGLD
notes: PKI NES helix with the ΦXΦ motif moved to the N-terminus and made larger (FDM), after GGSY left from TEV cleavage; also called PKI-Flip3; source: E. coli BL-21(DE3), MBP fusion purified (amylose, ion exchange), cleaved with TEV, peptide isolated by gel filtration; not shown: MBP, N-terminal, cleaved

How the values were obtained:
[1] = molecular target: CRM1* (ScCRM1 residues 1-1058, Δ377-413, V441D, 537DLTVK541 to GLCEQ) (Saccharomyces cerevisiae, UniProt P30822 1-1058, Δ377–413 | V441D | 537DLTVK541 to GLCEQ); test: crystal structure; quaternary CRM1*-RanGppNHp-RanBP1 (Yrb1p)-NES peptide complexes, assembled 1:3:10 and purified by gel filtration in GF buffer; crystals in 17% PEG3350, 100 mM Bis-Tris pH 6.4, 200 mM ammonium nitrate, 10 mM spermine HCl; conditions: both partners purified
[2] = molecular target: Full-length human CRM1 (HsCRM1) (human, UniProt O14980 1-1071); test: differential bleaching monitored with a microscale thermophoresis instrument (direct titration); HsCRM1 serially diluted from 40 μM to 1.2 nM, mixed 1:1 with 120 μM ScRan-GTP and 40 nM FITC-PKI^NES; TB buffer with 15% glycerol, 0.05% Tween-20; 1 hr, room temperature; conditions: both partners purified
Chain of Full-length human CRM1 (HsCRM1) (O14980 whole entry): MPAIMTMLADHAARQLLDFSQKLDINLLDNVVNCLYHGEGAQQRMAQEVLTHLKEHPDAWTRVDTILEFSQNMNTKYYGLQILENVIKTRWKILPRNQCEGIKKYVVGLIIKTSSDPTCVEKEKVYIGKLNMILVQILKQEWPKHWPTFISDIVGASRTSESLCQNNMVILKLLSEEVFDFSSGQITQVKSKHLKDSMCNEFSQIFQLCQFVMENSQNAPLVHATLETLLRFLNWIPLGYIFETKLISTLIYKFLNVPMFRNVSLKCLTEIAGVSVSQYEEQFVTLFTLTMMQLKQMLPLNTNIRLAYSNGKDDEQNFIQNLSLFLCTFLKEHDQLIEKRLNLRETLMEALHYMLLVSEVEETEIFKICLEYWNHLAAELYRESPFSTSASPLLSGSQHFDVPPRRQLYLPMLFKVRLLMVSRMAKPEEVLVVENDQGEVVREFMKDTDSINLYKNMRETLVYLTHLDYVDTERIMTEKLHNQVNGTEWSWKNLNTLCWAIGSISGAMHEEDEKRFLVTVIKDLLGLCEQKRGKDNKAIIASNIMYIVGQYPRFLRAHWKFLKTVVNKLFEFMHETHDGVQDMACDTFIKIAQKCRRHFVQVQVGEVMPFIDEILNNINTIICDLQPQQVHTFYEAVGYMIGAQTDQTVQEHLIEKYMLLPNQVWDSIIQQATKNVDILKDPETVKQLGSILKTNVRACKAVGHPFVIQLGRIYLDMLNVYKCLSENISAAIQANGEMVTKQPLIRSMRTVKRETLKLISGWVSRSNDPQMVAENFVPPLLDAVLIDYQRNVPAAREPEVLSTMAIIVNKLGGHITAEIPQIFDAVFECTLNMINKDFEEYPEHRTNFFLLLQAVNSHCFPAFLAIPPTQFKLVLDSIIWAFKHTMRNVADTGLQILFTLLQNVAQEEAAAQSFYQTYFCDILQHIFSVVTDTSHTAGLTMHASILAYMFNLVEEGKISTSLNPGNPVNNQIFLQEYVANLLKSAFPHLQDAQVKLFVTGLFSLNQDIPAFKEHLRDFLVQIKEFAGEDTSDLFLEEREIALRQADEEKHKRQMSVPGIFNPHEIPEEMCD

Row | Binder | binding result [1] | binding result [2]
1 | B1 | binds | –
2 | B2 | binds | –
3 | B3 | – | binds
4 | B4 | binds | –
5 | B5 | binds | –
6 | B6 | binds | –
